According to the RNAGym collection of RNA variant scans (doi:10.7554/elife.90254):

B1: OR4K15 (parent)
chain: GUUAACGGUCAUAGGCCAUGGAAACUAGGAGCACCAUUUCGCUGCCAGUGAAGAAAUGAACAAAGAAAAUCUGGGCCAGGCAGGCAUCAAAAGAAAUAGUCUUGCGCUCAACCAGAAAGUCUGUAAUCAUUUUAAGGGUA

Variants of: B1
Experiment: self-cleavage, relative activity (ratio to wild type); higher = more cleavage; in vitro, sequencing; the parent is a self-cleaving ribozyme

Compared with U12C A66G, A13G U120A is higher in self-cleavage: 0.97 for the first, 1.9 for the second.

First: A13G U120C
Second: A11U U102A
The self-cleavage of the first is lower: 0.6 for the first, 0.7 for the second.

Compared with A13U A30G, U12A A94G is lower in self-cleavage: 1.26 for the first, 1.12 for the second.

First: A13G A36U
Second: A11U A135U
The self-cleavage of the first is lower: 0.67 for the first, 0.98 for the second.

Going from G14A A111G to A13G G75C, the self-cleavage rises from 0.01 to 0.43.

Going from A11G U12C to A11G G115U, the self-cleavage falls from 1.07 to 0.27.

First: A11G U132A
Second: A11G U132C
The self-cleavage of the first is lower: 1.16 for the first, 1.21 for the second.

Compared with G14A A110G, A13G A47U is higher in self-cleavage: 0.13 for the first, 1.26 for the second.

First: U12C A59U
Second: U12C A110U
The self-cleavage of the first is lower: 0.65 for the first, 1.26 for the second.

First: A11G U19A
Second: A11G U19C
The self-cleavage of the first is higher: 1.08 for the first, 0.56 for the second.

First: U12A U103C
Second: U12C C85A
The self-cleavage of the first is lower: 0.14 for the first, 0.75 for the second.

First: A13G A22G
Second: A11G U120A
The self-cleavage of the first is higher: 1.11 for the first, 0.58 for the second.

First: A11U A18U
Second: A11U A82U
The self-cleavage of the first is higher: 1.82 for the first, 0.31 for the second.

Compared with A13G A30G, A13G A30U is higher in self-cleavage: 1 for the first, 1.14 for the second.

First: A13G C61U
Second: U12A G31A
The self-cleavage of the first is lower: 0.68 for the first, 1.75 for the second.

First: A13U C121A
Second: G14A A36U
The self-cleavage of the first is higher: 1.92 for the first, 0.83 for the second.

Compared with A13G A64C, A13G A64G is lower in self-cleavage: 1.08 for the first, 0.88 for the second.

Going from A11U U139C to A11G G74C, the self-cleavage falls from 1.23 to 0.38.

First: A11G G74U
Second: A11G G74A
The self-cleavage of the first is lower: 0.24 for the first, 0.41 for the second.

Compared with A13G A117G, A13G C88U is higher in self-cleavage: 1.11 for the first, 1.29 for the second.

First: A13G A23G
Second: G14A A63U
The self-cleavage of the first is higher: 1.3 for the first, 1.23 for the second.

First: A11U A52C
Second: U12C U97A
The self-cleavage of the first is lower: 1.27 for the first, 1.6 for the second.

Going from A13U A129U to G14U A56G, the self-cleavage rises from 0.73 to 1.18.

First: A13U A18C
Second: A13G A140G
The self-cleavage of the first is higher: 1.62 for the first, 0.62 for the second.

Compared with A13G A140C, U12C A94U is higher in self-cleavage: 1.31 for the first, 1.8 for the second.

Going from A11U A23U to A13G A52U, the self-cleavage rises from 0.71 to 0.84.

Compared with A13G A52G, U12C A98G is lower in self-cleavage: 1.22 for the first, 0.74 for the second.

First: A11U A90U
Second: U12C U43C
The self-cleavage of the first is lower: 1.19 for the first, 1.34 for the second.

Going from U12C U43A to A13U U49C, the self-cleavage rises from 0.93 to 1.28.

First: U12A A24G
Second: G14A A64G
The self-cleavage of the first is lower: 0.69 for the first, 1.06 for the second.

Compared with A11U A129U, A11U A129G is higher in self-cleavage: 0.64 for the first, 1.27 for the second.

Compared with A13U G73A, A13C U132C is higher in self-cleavage: 0.16 for the first, 1.06 for the second.

First: U12A G138A
Second: U12C U37C
The self-cleavage of the first is higher: 1.5 for the first, 1.04 for the second.

First: A13G C107A
Second: A11G G83A
The self-cleavage of the first is lower: 0.19 for the first, 1.23 for the second.

Going from A11G G119A to A11G U43C, the self-cleavage falls from 2.11 to 0.92.

First: A11G U43A
Second: A11G U43G
The self-cleavage of the first is lower: 1.12 for the first, 1.18 for the second.

First: A13G A69G
Second: U12C G28U
The self-cleavage of the first is higher: 0.92 for the first, 0.66 for the second.

First: A13C U122C
Second: A13C U122G
The self-cleavage of the first is lower: 1.03 for the first, 2.12 for the second.

Compared with A11U A98U, A11G G79A is lower in self-cleavage: 1.82 for the first, 0.16 for the second.

Going from A13U A62G to A13G A55U, the self-cleavage rises from 0.9 to 1.2.

Compared with A13G A55G, A11U U49A is lower in self-cleavage: 0.97 for the first, 0.68 for the second.

Going from A11U U49G to A13G U26C, the self-cleavage falls from 1.14 to 0.93.

First: G14C A118G
Second: U12C A96U
The self-cleavage of the first is lower: 0.43 for the first, 1.32 for the second.

Compared with A13G A67C, A13G A67G is higher in self-cleavage: 0.22 for the first, 1 for the second.

Going from A13U A60U to A13G G123C, the self-cleavage falls from 2.26 to 1.35.

First: A13G G123U
Second: U12A U122A
The self-cleavage of the first is higher: 1.33 for the first, 0.62 for the second.

First: A13G A66G
Second: A13G C85U
The self-cleavage of the first is lower: 0.55 for the first, 0.89 for the second.

First: A11U U120C
Second: U12C U100C
The self-cleavage of the first is lower: 0.69 for the first, 1.4 for the second.

Compared with U12C U100G, A13G A86G is lower in self-cleavage: 1.34 for the first, 0.89 for the second.

First: A13G A86C
Second: U12C U130A
The self-cleavage of the first is lower: 0.5 for the first, 1.45 for the second.

First: U12A A33U
Second: A13U A51G
The self-cleavage of the first is lower: 1.4 for the first, 1.53 for the second.

Going from U12C A51G to U12G G138A, the self-cleavage rises from 0.87 to 1.44.

Compared with A11G U49G, A11G U49A is lower in self-cleavage: 1.21 for the first, 0.88 for the second.

Compared with A13U A22G, A13U A22U is higher in self-cleavage: 1.38 for the first, 1.45 for the second.

Going from U12C U127C to A11U U12C, the self-cleavage rises from 0.62 to 0.97.

Compared with A11U C16U, A13G A116G is lower in self-cleavage: 2.22 for the first, 0.55 for the second.

Compared with A13C A66G, A11G G136U is higher in self-cleavage: 0.52 for the first, 1.19 for the second.

Going from G14A A30G to U12C G31U, the self-cleavage falls from 2.84 to 1.48.

First: U12C A134G
Second: A13G A51U
The self-cleavage of the first is higher: 1.7 for the first, 0.66 for the second.

Compared with A13U G80C, A11G U70G is higher in self-cleavage: 0.26 for the first, 0.6 for the second.

Compared with U12A C34U, A13U A82U is lower in self-cleavage: 0.53 for the first, 0.24 for the second.

Going from A13G A96G to A11U U43C, the self-cleavage rises from 0.9 to 1.44.

Going from U12C A18G to U12C A18U, the self-cleavage rises from 0.87 to 1.3.

Going from U12C U39C to A11U U70C, the self-cleavage falls from 1.21 to 0.67.

First: U12A U38C
Second: U12G A86G
The self-cleavage of the first is higher: 1.4 for the first, 0.92 for the second.

Compared with G14C U132C, A11U A47U is lower in self-cleavage: 1.04 for the first, 0.96 for the second.

Compared with A13G G104A, A13G U97A is higher in self-cleavage: 0.06 for the first, 1.2 for the second.

Compared with A13C A60G, G14U A52U is higher in self-cleavage: 1.39 for the first, 1.71 for the second.

First: A13G U70G
Second: A11U U131C
The self-cleavage of the first is lower: 1.1 for the first, 1.15 for the second.

Compared with U12A U108C, G14A A23G is higher in self-cleavage: 0.04 for the first, 0.8 for the second.

First: A11U G84A
Second: A11U G41A
The self-cleavage of the first is higher: 2.42 for the first, 0.96 for the second.

First: A13U A24G
Second: U12C A82G
The self-cleavage of the first is higher: 1.06 for the first, 0.76 for the second.

Going from A11U G58U to A13G U130A, the self-cleavage falls from 0.86 to 0.34.

First: A13G U130C
Second: A13U A54G
The self-cleavage of the first is higher: 0.83 for the first, 0.73 for the second.

Compared with U12A A52U, A11U A78U is lower in self-cleavage: 1.23 for the first, 0.49 for the second.

Going from A11U A78G to U12A C109U, the self-cleavage falls from 0.31 to 0.24.

Compared with A13U A111G, A11G G58U is higher in self-cleavage: 0.03 for the first, 0.79 for the second.

Compared with A13U C35A, G14C U127C is lower in self-cleavage: 1.88 for the first, 1.15 for the second.

First: U12G C105U
Second: A13U A23G
The self-cleavage of the first is lower: 0.22 for the first, 1.43 for the second.

Compared with A13G A90G, U12C U108C is lower in self-cleavage: 1.15 for the first, 0.03 for the second.

Going from A11U A62G to A11U A62C, the self-cleavage rises from 0.96 to 0.99.

Going from U12A A118G to U12C A47U, the self-cleavage falls from 1.04 to 0.93.

First: A13U U132A
Second: A13U U132C
The self-cleavage of the first is lower: 0.96 for the first, 2.18 for the second.

A13U U127C showed a self-cleavage of 0.75.
